From publication PMC4245398

Target: vimentin (UniProt P08670)
Test: co-immunoprecipitation, FAK-FLAG and endogenous vimentin
Details: reference: WT FAK-FLAG; sites Y397

## focal adhesion kinase (FAK) (from UniProt Q05397) Y397F FAK-FLAG
  binding against the reference: weaker
